Measured values from US20260325660 (published 2026).
Blank lines part the entries; values can stand above or below the binder they belong to.

Columns and labels:
[1] = target: ROR1 with Ig-like domain removed (human); test: FACS
[2] = target: T1, ROR1 with Frizzled domain removed (human); test: FACS
T1 chain: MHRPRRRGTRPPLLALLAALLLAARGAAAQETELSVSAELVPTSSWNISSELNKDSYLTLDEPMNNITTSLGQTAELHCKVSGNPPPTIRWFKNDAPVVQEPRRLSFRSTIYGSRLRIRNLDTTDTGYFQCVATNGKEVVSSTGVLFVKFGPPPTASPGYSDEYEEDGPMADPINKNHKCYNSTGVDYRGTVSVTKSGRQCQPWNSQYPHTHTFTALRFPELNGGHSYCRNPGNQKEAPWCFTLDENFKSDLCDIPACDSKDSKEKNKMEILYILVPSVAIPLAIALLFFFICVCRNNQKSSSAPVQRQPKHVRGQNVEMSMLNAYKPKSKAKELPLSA

[3] = target: T2, human ROR1 on tumor cell surface (human, UniProt Q01973); test: FACS, NCI-H226
[4] = target: T2, human ROR1 on tumor cell surface; test: FACS, MDA-MB-231
[5] = target: ROR1 with Ig-like domain removed (human); test: FACS; remark: listed apart in the source
[6] = target: ROR1 extracellular segment (with transmembrane) on CHO (human); test: FACS
human ROR1-ECD = human ROR1-ECD (human); test: ELISA
[7] = target: ROR1 with Kringle domain removed (human); test: FACS
human ROR2-ECD = human ROR2-ECD (human, UniProt Q01974); test: ELISA
Sequence of human ROR2-ECD (Q01974 34-403): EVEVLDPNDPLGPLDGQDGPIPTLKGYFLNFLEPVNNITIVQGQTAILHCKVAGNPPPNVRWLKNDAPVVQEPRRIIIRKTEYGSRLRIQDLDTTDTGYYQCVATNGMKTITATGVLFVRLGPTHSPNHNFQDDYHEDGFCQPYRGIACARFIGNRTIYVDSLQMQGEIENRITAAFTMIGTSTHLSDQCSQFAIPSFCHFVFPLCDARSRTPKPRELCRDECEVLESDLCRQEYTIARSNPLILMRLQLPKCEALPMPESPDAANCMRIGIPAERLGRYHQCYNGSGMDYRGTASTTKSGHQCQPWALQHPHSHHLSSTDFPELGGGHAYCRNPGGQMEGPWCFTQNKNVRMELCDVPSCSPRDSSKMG

T2 sequence (Q01973 30-406): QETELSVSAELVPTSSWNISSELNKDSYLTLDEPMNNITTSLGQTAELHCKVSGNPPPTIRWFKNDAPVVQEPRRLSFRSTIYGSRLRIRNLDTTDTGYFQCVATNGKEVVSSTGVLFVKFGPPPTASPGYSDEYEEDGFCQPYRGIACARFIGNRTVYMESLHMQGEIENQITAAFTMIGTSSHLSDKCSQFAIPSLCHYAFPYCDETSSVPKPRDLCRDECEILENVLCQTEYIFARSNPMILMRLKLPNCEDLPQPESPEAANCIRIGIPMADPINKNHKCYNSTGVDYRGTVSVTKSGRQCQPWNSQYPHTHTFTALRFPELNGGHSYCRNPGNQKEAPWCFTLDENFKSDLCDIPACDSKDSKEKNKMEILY
Sequence of human ROR1-ECD (human) (chain, as listed by the source): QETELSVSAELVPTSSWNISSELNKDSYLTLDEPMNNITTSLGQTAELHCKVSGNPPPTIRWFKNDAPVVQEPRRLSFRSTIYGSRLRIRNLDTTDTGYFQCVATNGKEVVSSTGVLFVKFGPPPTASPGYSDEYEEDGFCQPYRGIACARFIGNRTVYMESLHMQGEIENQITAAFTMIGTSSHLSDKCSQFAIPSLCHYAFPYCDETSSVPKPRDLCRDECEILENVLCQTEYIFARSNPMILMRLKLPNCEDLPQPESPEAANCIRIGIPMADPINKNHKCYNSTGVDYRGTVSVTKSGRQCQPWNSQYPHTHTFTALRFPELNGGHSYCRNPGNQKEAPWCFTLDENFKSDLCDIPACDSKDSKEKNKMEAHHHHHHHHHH

- binding result [1]: no binding
B5: mAb005c (antibody, V domains shown)
VH: EVQLVESGGGLVKPGGSLKLSCAASGFTFNSYAMSWVRQTPEKRLEWVATISDGGSYTYYPDNEKGRFTISRDNAKNNLYLQMSHLKSEDTAIYYCVRGGYYYNLYAMDYWGQGTSVTVSS
VL: DIVLTQSPASLAVSLGQRAIISCKASQSVSFPGTSLMHWYQQKPGQQPKLLIYRASNLEAGVPTRFSGSGSRTDFTLNIHPVEEDDTATYYCQQSREYPWTFGGGTQLEIK

- binding result [1]: no binding
B6: mAb003c (antibody, V domains shown)
VH: EVQLVESGGGLVKPGGSLKLSCAASGFTFSSYAMSWVRQTPEKRLEWVATISDGGSYTYYPDSVKGRFTISRDNAKNNLYLQMSHLKSEDTDMYYCVRGGYYYNLYAMDYWGQGTSVTVSS
VL: DIVLTQSPASLAVSLGQRAIISCKASQSVSFAGTSLMHWYQQKPGQQPKLLIYRASNLEAGVPTRFSGSGSRADFTLNIHPVEEDDAATYYCQQSGEYPWTFGGGTKLEIK

- binding result (human ROR2-ECD): no binding
B7: Hu005-46 (antibody, V domains shown)
VH: EVQLVESGGGLVKPGGSLRLSCAASGFTFNSYAMSWVRQTPGKRLEWVATISDAGSYTYYPDNEKGRFTISRDNAKNSLYLQMNSLRAEDTAIYYCVRGGYYYNLYAMDYWGQGTLVTVSS
VL: DIVLTQSPDSLAVSLGERATINCKASQSVSFPGTSLMHWYQQKPGQQPKLLIYRASNLEAGVPDRFSGSGSRTDFTLTISSLQAEDVAVYYCQQSREYPWTFGGGTKVEIK

The next lines start with the binder.

B1: UC-961 (antibody, V domains shown)
VH: QVQLQESGPGLVKPSQTLSLTCTVSGYAFTAYNIHWVRQAPGQGLEWMGSFDPYDGGSSYNQKFKDRLTISKDTSKNQVVLTMTNMDPVDTATYYCARGWYYFDYWGHGTLVTVSS
VL: DIVMTQTPLSLPVTPGEPASISCRASKSISKYLAWYQQKPGQAPRLLIYSGSTLQSGIPPRFSGSGYGTDFTLTINNIESEDAAYYFCQQHDESPYTFGEGTKVEIK
- binding result [1]: no binding

B2: mAb002c (antibody)
chain 1: EVQLQQSGPELVKPGASVKMSCKTSGYTFTDYNLHWVKQSHRRSLEWIGYINPNNGGTTYNQKFKGKATLTVDKSSSTAYMELRSLTSEDSAVYYFVRRVRTGTGFDYWGQGTTLTVSS
chain 2: EVLMTQTPLSLPVSLGDQASISCKSSHNILHTNGNTYLEWYLQKPGQSPKLLIYKVSNRFSGVPDRFSGSGSGTDFTLTISRVEAEDLGVYYCFQGSRFPYTFGGGTKLEIK
- EC50 [2]: 860 pM
- EC50 [3]: 140 pM
- EC50 [4]: 200 pM
- EC50 [5]: 350 pM
- EC50 [6]: 600 pM
- EC50 (human ROR1-ECD): 13 pM
- EC50 [7]: 660 pM

B3: mAb002 (mouse) (antibody)
chain 1: EVQLQQSGPELVKPGASVKMSCKTSGYTFTDYNLHWVKQSHRRSLEWIGYINPNNGGTTYNQKFKGKATLTVDKSSSTAYMELRSLTSEDSAVYYFVRRVRTGTGFDYWGQGTTLTVSS
chain 2: EVLMTQTPLSLPVSLGDQASISCKSSHNILHTNGNTYLEWYLQKPGQSPKLLIYKVSNRFSGVPDRFSGSGSGTDFTLTISRVEAEDLGVYYCFQGSRFPYTFGGGTKLEIK
- EC50 [4]: 110 pM
- EC50 (human ROR1-ECD): 28 pM

B4: Hu001-02 (antibody, V domains shown)
VH: QVQLVQSGAEVKKPGASVKVSCKASGYTFTDYNLHWVRQAPGQGLEWMGYINPNHDATSYNQKFQGRVTMTRDTSTSTVYMELSSLRSEDTAVYYCARRVRTGTGLDDWGQGTTVTVSS
VL: DVVMTQSPLSLPVTLGQPASISCRSSHNIVHTNANTYLEWYQQRPGQSPRLLIYKVSNRFSGVPDRFSGSGSGTDFTLKISRVEAEDVGVYYCFQGSRFPYTFGGGTKVEIK
- binding result (human ROR2-ECD): no binding
